Target: KDR-HA (human KDR with a C-terminal HA tag) (human, UniProt P35968 20-1356)
Assay: cell-based or functional assay

Chain of KDR-HA (human KDR with a C-terminal HA tag) (P35968 20-1356): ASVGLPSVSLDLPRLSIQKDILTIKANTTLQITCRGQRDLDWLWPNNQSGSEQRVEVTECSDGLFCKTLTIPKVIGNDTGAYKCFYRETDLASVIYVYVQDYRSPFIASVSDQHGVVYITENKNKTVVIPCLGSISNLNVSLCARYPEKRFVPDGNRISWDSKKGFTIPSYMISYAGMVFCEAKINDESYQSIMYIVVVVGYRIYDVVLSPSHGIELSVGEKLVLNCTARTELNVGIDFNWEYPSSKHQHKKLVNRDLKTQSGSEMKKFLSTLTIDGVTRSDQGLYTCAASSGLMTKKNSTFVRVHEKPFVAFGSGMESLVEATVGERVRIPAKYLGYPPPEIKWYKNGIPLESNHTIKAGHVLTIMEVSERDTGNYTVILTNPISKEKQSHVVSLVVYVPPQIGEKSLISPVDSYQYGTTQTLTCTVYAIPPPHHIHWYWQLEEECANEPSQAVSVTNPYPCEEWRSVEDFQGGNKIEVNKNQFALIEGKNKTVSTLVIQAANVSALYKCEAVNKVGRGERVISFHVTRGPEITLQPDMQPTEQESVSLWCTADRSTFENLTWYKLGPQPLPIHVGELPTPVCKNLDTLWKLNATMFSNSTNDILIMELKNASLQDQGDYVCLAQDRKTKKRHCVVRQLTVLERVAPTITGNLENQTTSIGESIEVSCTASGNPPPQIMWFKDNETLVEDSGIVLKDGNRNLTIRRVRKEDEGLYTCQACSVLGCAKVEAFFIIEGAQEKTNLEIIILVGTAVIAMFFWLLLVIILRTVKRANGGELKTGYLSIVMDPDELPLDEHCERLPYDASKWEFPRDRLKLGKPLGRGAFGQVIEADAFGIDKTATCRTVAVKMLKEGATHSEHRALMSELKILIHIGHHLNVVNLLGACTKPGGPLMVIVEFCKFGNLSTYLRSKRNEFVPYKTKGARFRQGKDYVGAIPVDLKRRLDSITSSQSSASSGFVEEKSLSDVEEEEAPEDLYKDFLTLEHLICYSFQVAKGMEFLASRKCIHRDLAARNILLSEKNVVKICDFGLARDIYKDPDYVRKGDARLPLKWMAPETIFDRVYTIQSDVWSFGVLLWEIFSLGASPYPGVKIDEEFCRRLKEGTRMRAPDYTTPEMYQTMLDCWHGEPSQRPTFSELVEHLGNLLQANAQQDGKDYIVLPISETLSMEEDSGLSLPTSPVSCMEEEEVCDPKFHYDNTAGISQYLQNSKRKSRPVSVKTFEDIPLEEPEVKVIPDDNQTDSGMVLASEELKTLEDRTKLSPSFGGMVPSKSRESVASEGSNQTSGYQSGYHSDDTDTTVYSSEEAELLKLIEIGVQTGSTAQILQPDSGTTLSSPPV

B1: PTK7-FLAG (human PTK7 with a C-terminal FLAG tag) (receptor, UniProt Q13308 31-1070, looked up)
chain: AIVFIKQPSSQDALQGRRALLRCEVEAPGPVHVYWLLDGAPVQDTERRFAQGSSLSFAAVDRLQDSGTFQCVARDDVTGEEARSANASFNIKWIEAGPVVLKHPASEAEIQPQTQVTLRCHIDGHPRPTYQWFRDGTPLSDGQSNHTVSSKERNLTLRPAGPEHSGLYSCCAHSAFGQACSSQNFTLSIADESFARVVLAPQDVVVARYEEAMFHCQFSAQPPPSLQWLFEDETPITNRSRPPHLRRATVFANGSLLLTQVRPRNAGIYRCIGQGQRGPPIILEATLHLAEIEDMPLFEPRVFTAGSEERVTCLPPKGLPEPSVWWEHAGVRLPTHGRVYQKGHELVLANIAESDAGVYTCHAANLAGQRRQDVNITVATVPSWLKKPQDSQLEEGKPGYLDCLTQATPKPTVVWYRNQMLISEDSRFEVFKNGTLRINSVEVYDGTWYRCMSSTPAGSIEAQARVQVLEKLKFTPPPQPQQCMEFDKEATVPCSATGREKPTIKWERADGSSLPEWVTDNAGTLHFARVTRDDAGNYTCIASNGPQGQIRAHVQLTVAVFITFKVEPERTTVYQGHTALLQCEAQGDPKPLIQWKGKDRILDPTKLGPRMHIFQNGSLVIHDVAPEDSGRYTCIAGNSCNIKHTEAPLYVVDKPVPEESEGPGSPPPYKMIQTIGLSVGAAVAYIIAVLGLMFYCKKRCKAKRLQKQPEGEEPEMECLNGGPLQNGQPSAEIQEEVALTSLGSGPAATNKRHSTSDKMHFPRSSLQPITTLGKSEFGEVFLAKAQGLEEGVAETLVLVKSLQSKDEQQQLDFRRELEMFGKLNHANVVRLLGLCREAEPHYMVLEYVDLGDLKQFLRISKSKDEKLKSQPLSTKQKVALCTQVALGMEHLSNNRFVHKDLAARNCLVSAQRQVKVSALGLSKDVYNSEYYHFRQAWVPLRWMSPEAILEGDFSTKSDVWAFGVLMWEVFTHGEMPHGGQADDEVLADLQAGKARLPQPEGCPSKLYRLMQRCWALSPKDRPSFSEIASALGDSTVDSKP
- VEGF-induced phosphorylation of KDR (Tyr1175) in HUVECs pre-treated with mAb-32 (10 ug/mL), Western blot, relative to VEGF alone: 53.2 % of VEGF-alone control
- VEGF-induced phosphorylation of KDR (Tyr1175) in HUVECs pre-treated with mAb-43 (10 ug/mL), Western blot, relative to VEGF alone: 56.9 % of VEGF-alone control

Source: PMC9496920, “Anti-PTK7 Monoclonal Antibodies Inhibit Angiogenesis by Suppressing PTK7 Function” (Cancers, 2022)
